Experimental data: publication PMC9071465

Experiments:
[1] = biological target: At-HIGLE (HYL-1 Interacting GIY-YIG Like Endonuclease) from Arabidopsis thaliana, full length (Arabidopsis thaliana); assay: SEC; Sephacryl 16/60 S-200, 20 mM Tris-HCl (pH 8.5), 5% glycerol, 5 mM beta-mercaptoethanol, 0.5 M NaCl; calibrated with gel filtration markers; oligomeric state from a standard curve
[2] = biological target: At-HIGLE^184-368 (C-terminal region of At-HIGLE) (Arabidopsis thaliana); assay: SEC; Sephacryl 16/60 S-100, 20 mM Tris-HCl (pH 8.5), 5% glycerol, 5 mM beta-mercaptoethanol, 0.5 M NaCl; calibrated with gel filtration markers; oligomeric state from a standard curve

Row | Substance | stoichiometry N [1] | stoichiometry N [2]
1 | At-HIGLE (HYL-1 Interacting GIY-YIG Like Endonuclease) from Arabidopsis thaliana, full length (enzyme) | 2 | –
2 | At-HIGLE^184-368 (C-terminal region of At-HIGLE) (domain or fragment) | – | 2
